The source of these data is patent publication US20020107174A1, “COMPOSITION COMPRISING ENDOTOXIN NEUTRALIZING PROTEIN AND DERIVATIVES AND USES THEREOF” (priority 1998, published 2002).

In experiment [1] the test system is Propionibacterium acnes, ATCC No. 11827. Briefly: Zone inhibition assay. The class given is cell-based. The conditions noted are these: 4 mm disc treated with 10 μl (Limulus ENP 1 mg/ml; benzoyl peroxide 0.05%), overnight at 37° C. How it is done: The inhibitory effect of a recombinant Limulus ENP (i.e., that expressed from the fusion protein II construct discussed above) was tested against Propionibacterium acnes, the bacterium that causes acne, using a zone inhibition assay. Petri dishes were filled with sterile nutrient agar following standard microbiological procedures. The nutrient agar-filled dishes were allowed to cool and harden before being inoculated with test bacteria. Using a sterile swab, the surface of the petri dishes were inoculated with a culture of Propionibacterium acnes, ATCC No. 11827, that had grown overnight at 37° C.
Sterile filter paper discs (4 mm, Whatman) were treated with 10 μl of aqueous solutions of (1) recombinant Limulus ENP at a concentration of 1 mg/ml (the test sample); (2) benzoyl peroxide at a concentration of 0.05% (the positive control); or (3) sterile saline (the negative control). Benzoyl peroxide serves as a positive control because it is known to inhibit the growth of Propionibncterium acnes.
The treated filter paper discs were placed on the inoculated plates and the plates incubated overnight at 37° C. The Limulus ENP disc produced a zone of inhibition having a diameter of 4-5 mm. The benzoyl peroxide disc produced a zone of inhibition having a diameter of 10-11 mm. The negative control disc produced no zone of inhibition.

Experiment [2] relates to E. coli strain 25303. Briefly: Growth inhibition of E. coli in Luria broth, optical density (LAL 5000). The class given is cell-based. How it is done:
E. coli cells were cultured overnight at 37° C. in LB. Aliquots were diluted 1:100 in fresh LB (control). LB plus PMB was serially diluted from 0.25 μg/ml to 0.001 μg/ml. LB plus Limulus ENP was formulated at concentrations from 20 to 0.07,μg/ml. Optical density of the cell culture was recorded at 410 nm during the course of the experiment.
The tubes were then inoculated with cells of a log phase E. coli culture.
TET was serially diluted with LB in ten-fold increments from 10 μg/ml to 0.0001 μg/ml.
E. coli cells were cultured overnight at 37° C. in LB. Aliquots of the culture were diluted 1:100 in fresh LB as controls. Test samples consisted of cells in: LB plus AMP at 2.5 μg/ml; LB plus Limulus ENP at 25 and 5 μg/ml; and combination of 2.5 μg/ml AMP and either 2.5 or 5.0 μg/ml Limulus ENP. Optical density of the cell samples was recorded at 410 nm during the course of the experiment.

The test system of experiment [3] is Bortadella sp. Briefly: Growth inhibition of Bortadella sp., optical density. The conditions noted are these: GMS alone.
Experimental: An LAL 5000 spectrophotometer (Associates of Cape Cod) was used to monitor optical density changes over time when bacteria were grown in sterilized Luria broth (LB). The LAL 5000 can accommodate up to 32 individual 10×75 mm glass test tubes in its circular array. Automated temperature control was maintained at 37° C. for these experiments. LB was placed into sterile, oven depyrogenated glass test tubes. […] Other gram-negative (E. coli strains Rosenbergii sp., K12, X10, HB101, Shewanella sp., Bortadella sp.) and gram-positive bacteria (e.g., S. aureus, and Bacillus spp.) were grown in this manner and changes in optical density were monitored over time. The optical density data was collected, stored and analyzed by computer which was interfaced with the LAL 5000.
The tubes were then inoculated with cells from a log phase culture of Bortadella sp. Optical density of each tube was monitored via method described above.
For experiment [4], the system named is E. coli endotoxins. The conditions noted are these: rabbits, cited from earlier work.
Experiment [5] has as its system meningococcal endotoxins. To be noted: rabbits, cited from earlier work.
Experiment [6] concerns E. coli cultures. The experiment is described as follows: Endotoxin levels in antibiotic-inhibited cultures, Limulus amebocyte lysate (LAL) assay. The class given is cell-based. How it is done:
Antibiotic-inhibited gram-negative bacteria release endotoxins into the medium. […] E. coli cultures treated with antibiotic alone or in combination with Limulus ENP were prepared and incubated as described in Sections 6.3.1 and 6.3.2, above. The endotoxin levels present in the cultures were measured using the standard Limulus amebocyte lysate (LAL) assay.

The subject of experiment [7] is Pool 5 (Fungi): Aspergillus niger. The experiment is described as follows: Preservative challenge of oil in water emulsion, plate count, Pool 5. To be noted: 0.01% (weight/volume) in emulsion, eight week period. The class given is cell-based. On the procedure: (§1) The cell numbers of the pools were quantitated by serial dilution. That is, the number of viable cells was determined by taking an aliquot from the sample, diluting it and culturing it so that colonies arising from individual cells could be counted.
(§2) An oil in water emulsion was prepared comprising the following ingredients:
(§3) To test its antimicrobial activity, Limulus ENP was added to the emulsion to achieve a concentration of about 0.01 weight percent, with appropriate adjustment of distilled water. Control and Limulus ENP-containing emulsions were inoculated with 10^8 viable cells from each of the five microorganism pools. The number of viable microbial cells was determined by plate count at the time of the initial inoculating, and at weekly intervals up to 8 weeks. After obtaining an aliquot for cell count at Week 3, microbes were re-inoculated to initial levels. The weekly cell counts are shown in Table 5 as logs of the cell number.

The test system of experiment [8] is endotoxins. Briefly: Biological activity of recombinant Limulus ENP from S. cerevisiae. To be noted: from pCGS965-transformed S. cerevisiae. The text has this:
In one yeast expression system, an expression construct encoding the aforementioned fusion protein I was inserted into an autonomous replicating plasmid yielding pCGS965 (FIG. 9). This plasmid, in turn, was used to transform S. cerevisiae strain 2470. pCGS965 carries the gene for uracil production, which complements the host strain's auxotrophy for this base. Recombinant Limulus ENP has been expressed, purified, and characterized from pCGS965-transformed cells grown at the 500 liter scale. Fusion protein I was expressed and correctly processed, and the Limulus ENP secreted into the medium. The recombinantly produced Limulus ENP has biological activity identical to that of ENP isolated from Limulus amebocytes.

Experiment [9] has as its system uncharacterized gram-positive bacterium isolated from marine organisms. Briefly: Growth inhibition of gram-positive bacterium from marine organisms, optical density at 410 nm. The conditions noted are these: Limulus ENP at 2.5 or 5 μg/ml. The class given is cell-based. On the procedure:
An uncharacterized gram-positive bacterium isolated from marine organisms was cultured overnight at 37° C. in LB. Aliquots of the culture were diluted 1:100 in fresh LB as controls. Test samples consisted of cells in LB plus LimulusENP at 2.5 or 5.0 μg/ml. The control and Limulus ENP-treated cultures were incubated at 37° C. Optical density of the cultures was recorded at 410 nm during the course of the experiment to monitor the growth of the gram-positive bacterium.

Experiment [10] concerns Pool 4 (Yeast): Candida parapilosis, C. albicans. The experiment is described as follows: Preservative challenge of oil in water emulsion, plate count, Pool 4. The conditions noted are these: 0.01% (weight/volume) in emulsion, eight week period. The class given is cell-based. How it is done:
as §1, §2, §3

Experiment [11] has as its system E. coli. The conditions noted are these: rabbits; cited from earlier work.
The test system of experiment [12] is endotoxins or lipid A from gram-negative bacteria. The conditions noted are these: ENP added in excess; cited from earlier work.
In experiment [13] the test system is murine splenocytes. To be noted: cited from earlier work.
For experiment [14], the system named is Escherichia coli endotoxin. To be noted: rats; cited from earlier work.
The subject of experiment [15] is rough gram-negative bacteria. The conditions noted are these: cited from earlier work.
The test system of experiment [16] is human macrophages. To be noted: cited from earlier work.
Experiment [17] relates to encapsulated strain of E. coli. The conditions noted are these: rats, cited from earlier work.
Experiment [18] concerns human endothelial cells. The conditions noted are these: cited from earlier work.
[19] abbreviates: compared with anti-endotoxin antibody HA-1A.

Take `O=C(OOC(=O)c1ccccc1)c1ccccc1` [benzoyl peroxide, reference compound]: the “zone of inhibition, diameter” value in experiment [1] is reported as 10-11 mm.
gentamycin sulfate [GMS]: the “effective concentration which substantially inhibits the growth of E. coli” value in [2] (GMS alone, Luria broth) worked out at 0.5 µg/mL. Further, the “lowest effective concentration which almost totally inhibited the growth of Bortadella sp.” value in experiment [3] worked out at 10 µg/mL.
polymixin B [PMB, reference compound]: the “inhibition of growth of E. coli” value in [2] (0.06 μg/ml PMB alone) is listed as “approximately 20%”. The “lowest effective concentration which totally inhibited the growth of E. coli” value in experiment [2] (PMB alone, Luria broth) stood at 5 µg/mL. Further, in experiment [4] (pretreatment with PMB, potent dose of E. coli endotoxins), the shock and mortality entry was “effective in preventing shock and mortality”. In addition, the “physiologic functions or mortality” value in experiment [5] (pretreatment with PMB alone) is “failed to improve”. Further, in experiment [6] (E. coli cultures inhibited by PMB at 5 μg/ml), the “ENDOTOXIN LEVEL” value came to 3.8 µg/mL.

B1: Limulus ENP: the 11.8 kDa ENP from the horseshoe crab Limulus polyphemus; residues 5 to 105 of SEQ ID NO:2 or SEQ ID NO:5 (protein, listed as Limulus polyphemus)
chain: DGIWTQLIFTLVNNLATLWQSGDFQFLDHECHYRIKPTFRRLKWKYKGKFWCPSWTSITGRATKSSRSGAVEHSVRNFVGQAKSSGLITQRQAEQFISQYN
Turning to B1, the “effect on the fungus Aspergiltus niger” value in [7] is given as “limited fungal growth”. The “biological activity compared with ENP isolated from Limulus amebocytes” value in experiment [8] was “identical”. In addition, the “growth of the gram-positive bacterium” value in [9] is reported as “effectively inhibited”. Besides, the “effect of serum proteins on biological activity, antimicrobial properties and endotoxin binding activity” value in [6] (serum-containing media) was “did not adversely affect”. Besides, in experiment [1], the “zone of inhibition, diameter” value is on record as 4-5 mm. Further, the “killing and re-growth of the yeasts Candida parapilosis and Candida albicans” value in experiment [10] is “effective at killing and preventing the re-growth”.

B2: ENP: protein found in horseshoe crab amebocyte lysates that binds and neutralizes the biological activity of endotoxins (protein, listed as Limulus polyphemus)
chain: DGIWTQLIFTLVNNLATLWQSGDFQFLDHECHYRIKPTFRRLKWKYKGKFWCPSWTSITGRATKSSRSGAVEHSVRNFVGQAKSSGLITQRQAEQFISQYN
Regarding B2, the “survival rate with E. coli sepsis” value in [11] and in experiment [17] was “improve the survival rate” in each case. Further, the “endotoxin activity in the mixture” value in [12] is “greatly reduced”. Besides, the “physiological functions and survival rate” value in [4] (2.5 or 5 mg/kg before lethal endotoxin challenges) and in [5] (administered 30 minutes after meningococcal endotoxin challenges) was “significantly improved” throughout. Also, the survival rates result in experiment [4] (administered 30 min. after endotoxin challenge) and in experiment [17] (setting [19]) was “improved survival rates” each time. The “protection against lethal meningococcal challenge” value in experiment [5] is given as “protective”. The “endotoxin induction of mitogenesis of murine splenocytes” value in [13] is “inhibit”. Also, the “protection against lethal Escherichia coli endotoxin challenge” value in experiment [14] is listed as “protective”. Also, the “growth of rough gram-negative bacteria” value in experiment [15] is listed as “inhibits the growth”. In experiment [16], the “endotoxin induction of release of tumor necrosis factor by human macrophages” value is “inhibit”. In [17] (setting [19]), the circulating endotoxin concentrations result is recorded as “significantly lower”. Also, the “lethal effect of endotoxins released by the infecting E. coli” value in experiment [17] (dose of 50 mg/kg, also when administered after endotoxin had circulated) is given as “blocked the lethal effect”. The “endotoxin induction of activation of human endothelial cells” value in experiment [18] was “inhibit”.
